The record followed here is patent publication US5574016A, “Peptide compound and a process for the preparation thereof” (Fujisawa Pharmaceutical Co., Ltd., priority 1991, dated 1996).

This experiment relates to thrombosis model in Guinea-pig (FeCl3 carotid artery thrombosis). As to the kind of experiment: Enhancement of thrombolytic activity of TPA in thrombosis model in Guinea-pig. It is filed as in vivo, Male Hartley guinea-pigs. The note with it: Group 1 (5 animals): saline and r-TPA 0.30 mg/kg i.v. bolus +1.0 mg/kg/hour i.v. infusion; reperfusion = 50 % recovery of carotid blood flow velocity; recorded up to 90 minutes. From the text: Male Hartley guinea-pigs (500-800 g) were anesthetized with urethane (1.25 g/kg i.p.). The carotid artery and cervical vein were carefully exposed after a midline cervical insision. The vein was cannulated with a polyethylene catheter (PE50; Becton Dikinson, U.S.A.) for the injection and infusion of the drug. A pulse Dopplar flow probe was placed around the carotid artery to record the blood flow velocity to moniter thrombus formation and thrombolysis. Carotid artery thrombosis was induced by the FeCl3 method as follows;
a square (1 mm×1 mm) of ADVANTEC No. 2 filter paper immersed in 20% FeCl3 was placed on the carotid artery which became occluded by a thrombus.
When the blood flow velocity decreased to zero, the filter paper was removed from the vessel and the carotid artery were washed with saline more than 4 times. The test compound or saline was injected 3 minutes after the washing and 3 minutes later r-TPA [Actilyse (trademark); Boehringer Ingelheim Ltd] was infused for 60 minutes.
The animals were divided into the following groups;
Group 1 (5 animals): Saline and r-TPA at 0.30 mg/kg i.v. bolus +1.0 mg/kg/hour i.v. infusion […]
The reperfusion was defined as 50 % recovery of carotid artery blood flow velocity compared with the initial value. The blood flow was recorded up to 90 minutes.

B1: r-TPA: r-TPA [Actilyse (trademark); Boehringer Ingelheim Ltd], tissue plasminogen activator, infused for 60 minutes (protein, UniProt P00750 36-562, looked up)
Tissue-type plasminogen …: SYQVICRDEKTQMIYQQHQSWLRPVLRSNRVEYCWCNSGRAQCHSVPVKSCSEPRCFNGGTCQQALYFSDFVCQCPEGFAGKCCEIDTRATCYEDQGISYRGTWSTAESGAECTNWNSSALAQKPYSGRRPDAIRLGLGNHNYCRNPDRDSKPWCYVFKAGKYSSEFCSTPACSEGNSDCYFGNGSAYRGTHSLTESGASCLPWNSMILIGKVYTAQNPSAQALGLGKHNYCRNPDGDAKPWCHVLKNRRLTWEYCDVPSCSTCGLRQYSQPQFRIKGGLFADIASHPWQAAIFAKHRRSPGERFLCGGILISSCWILSAAHCFQERFPPHHLTVILGRTYRVVPGEEEQKFEVEKYIVHKEFDDDTYDNDIALLQLKSDSSRCAQESSVVRTVCLPPADLQLPDWTECELSGYGKHEALSPFYSERLKEAHVRLYPSSRCTSQHLLNRTVTDNMLCAGDTRSGGPQANLHDACQGDSGGPLVCLNDGRMTLVGIISWGLGCGQKDVPGVYTKVTNYLDWIRDNMRP
With B1, the “number of animals in which reperfusion was observed” value turned out to be 1.
